What was measured:
[1] = target: Aβ42 synthetic peptide (UniProt P05067 672-713); test: cell-based or functional assay
[2] = target: the molecule itself; test: atomic force microscopy; mtNUCB1 alone plated on freshly cleaved mica, imaged in air in tapping mode; volume analysis of particles

B1: Ca2+-free mutant variant of soluble nucleobindin 1 (mtNUCB1) (natural protein, human, UniProt Q02818 31-461, looked up)
chain: RGAPNKEETPATESPDTGLYYHRYLQEVIDVLETDGHFREKLQAANAEDIKSGKLSRELDFVSHHVRTKLDELKRQEVSRLRMLLKAKMDAEQDPNVQVDHLNLLKQFEHLDPQNQHTFEARDLELLIQTATRDLAQYDAAHHEEFKRYEMLKEHERRRYLESLGEEQRKEAERKLEEQQRRHREHPKVNVPGSQAQLKEVWEELDGLDPNRFNPKTFFILHKINSDGVLDEQALEALFTKELEKVYDPKNEEDDMREMEEERLRMREHVMKNVKTNQDRLVTLEAFLASTQRKEFGDTGEGWETVEMHPAYTEEELRRFEEELAAREAELNAKAQRLSQETEALGRSQGRLEAQKRELQQAVLHMEQRKQQQQQQQGHKAPAAHPEGQLKFHPDTDDVPVPAPAGDQKEVDTSEKKLLERLPEVEVPQHL
notes: His tag cleaved with PreScission protease; also called CLABP; source: E. coli BL21 (DE3), purified (Ni-NTA, Superdex200 SEC); not shown: His6, N-terminal, cleaved
MTT viability of PC12 cells treated for 24 h with 100 nM Aβ42 and increasing doses of mtNUCB1: IC50 of protection [1]: 1400 nM | stoichiometry N [2]: 2
